Consider 16 sequences from the nanobody polyreactivity screen of Harvey et al. (2022).

The data set can be described thus: yeast display, Sf9 membrane polyspecificity reagent, FACS + sequencing; frameworks hold sequencing errors. Summed up:
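Sorting gates, low and high (top ~1%), were placed on anti-HA fluorescence to track expression and on streptavidin fluorescence to track reagent binding. A clone's polyreactivity label is taken from the gate it came out of. The reagent was 10% biotinylated, detergent-solubilized Sf9 membrane, applied for 1 hour at 4 °C to galactose-induced yeast display cells.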
“QVQLVESGGGLDQAGGSLRLSCAASGRTFAYYTMGWYRQAPGKERELVAAITSSGGSTYYADSVKGRFTISRDNAKNTVYLQMKSLKPEDTAVYYCNAYGLRWASRLGYDYWGQGTQVTVSS”: the “polyreactivity (PSR sort gate)” value was “high polyreactivity”.

Take “IIQAGGSLRLSCAASGSTLIGYTMGWYRQAPGKERELVAAITWGAGSTNYADSVKGRFTISRDNAKNTVYLQMNSLKPEDTAVYYCNADSTSDPRYLGEYDYWGQGTQVTVSS”: the “polyreactivity (PSR sort gate)” value is recorded as “low polyreactivity”. Regarding “QVQLVESGGGLVQAGGSLRLSCAASGSILAGNVMGWYRQAPGKERELVAAITGSGGITYYADSVKGRFTISRDNAKNTVYLQMNSLKPEDTAVYYCNAVPDTRSGELDYWGQGTQVTVSS”, the “polyreactivity (PSR sort gate)” value was “low polyreactivity”. Take “QVQLVESGGGLVQAGGSLRLSCAASGSIFTRYAMGWYRQAPGKERELVAAITKSGSRTYYADSVKGRFTISRDNAKNTVYLQMNSLKPEDTAVYYCAVKFYLPRTRGGYWGQGTQVTVSS”: the “polyreactivity (PSR sort gate)” value is “high polyreactivity”. Then “QVQLVESGGGLVQAGGSLRLTSAGSGRIFDYNAMGCYRQAPGKERELVAAITYSGGSTYYADSVKGRFTISRDNAKNTVYLQMNSLKPEDTAVYYCAAPDPYYHYRYPWQSRYDYNYWGQGTQVTVSS”, with “low polyreactivity”; and “QVQLVESGGGLVQAGGSLRLSCAASGSTFYNYAMGWCRLAPGKERELVAATSSGGSTNYADSVKGRFTISRDNAKNTVFLQMISLKPEDNAVYYCARRHRVYPSRIGHDYWGQGTQVTVSS”, with “low polyreactivity”; and “QVQLVESGGGLVQAGCSLRLSCAASGRIFASNPMGWYRQAPGKERELVAGISRNGGSTFYADSVKGRFTISRDNAKNTVDVQMHSLKPEDTEVYYCARYFTHSGGYRDRIYYYWGQGTQVTVSS”, with “low polyreactivity”. In the case of “QVQLVESGGGLVQAGGSLRLSCAASGSIFNYYVMGWYRQAPGKERELVAGIRWNGGSTYYADSVKGRFTISRDNAKNTVYLQMNSLKPEDTAVYYFAAQAWWGYYSRGPMDYWGQGTQVTVSS” it was “low polyreactivity”; in that of “QVQHVESGGGLVQAGRSLRLSCAATGRTFGSNAMGWYRQAPGKERELVAAISLRGGRTYYADSVKGRFTISRDNAKNTVYLQMNSLKPEDTAVYYCNAVHYLYGARSRLTYDYWGQGTQVTVSS”, “high polyreactivity”. With “QVQLVESGGGIVQAGGSLRLSCAASGSTLFGDAMGLYRQAPGKERELVAAINRRGSTNYADSVKGRFTISRDNAKNTVYLKMNCLKPEDTAVYYCAAYIYKTYRYYYWGQGTQVTVSS”, the “polyreactivity (PSR sort gate)” value is “high polyreactivity”. Take “QVQLVESGGGLVQAGGSLRLSCAASGSTFAGNAMGWYRQAPGKERELVAAISGSGGITYYADSVKGRFTISRDNAKNTVYLQMNSLKPEDTAVYYCNAYYWFSRYGYWGQGTQVTVSS”: the “polyreactivity (PSR sort gate)” value was “high polyreactivity”. For “QVQLVESGGGLVQEGGSLRISCAASGRIFDSNAMVWYRQAPGKERELVAAISNGGTTNYADSVKGRFTISRDNAKNTVYLQMNSLKPADTAVYYCAARGRVVWYNGGSYRFYYWGQGTQVTVSS”, the “polyreactivity (PSR sort gate)” value is recorded as “high polyreactivity”. On to “QVQLVESGGGLVQAGGSLRLSCAASGSTFSENAMGWYRQAPGKERELVAAISWGGGSTYYADSVKGRFTISRDNAKNTVYLQMNSLKPEDTAVYYCIADVFDDYGYFESDYWGQGTQVTVSS”, for which the “polyreactivity (PSR sort gate)” value was “low polyreactivity”.

With “QVQHVESGGGLVQAGGSLRLSSAASGFTFSRNAMGWYRQAPGKERELVAAIDSGGSTDYADSVKGRFTISRDNAKNTVYLQMNSLKPEDTAVYYCNVDGYYLFVRGYEYWGQGTQLTVSS”, the “polyreactivity (PSR sort gate)” value is “low polyreactivity”.

In the case of “QVQLVESGGGLVQAGGSLRLSCDASGFNIASYDMGWYRQAPGKERELVAAISKGGGRTYYADSVKGRFTISRDNAKNTVYLQMKSLKPEDTAVYYCAAYAPYPRRAYDYWGQGTQVTVSS”, the “polyreactivity (PSR sort gate)” value was “low polyreactivity”. In the case of “QVQLVESGGGLDQAGCSLRLSWAASGITSYYNAMGWYRQAPGKERELVAAITSGGSTYYADSVKGRFTISRDNAKNTVYLQMNSLKPEVTAVYYCARRSRYLWRYDYWGQGTQVTVSS” it was “high polyreactivity”.
